Experimental data taken from publication doi:10.1101/2025.01.09.632101.

Target: DPEP1-Avi: porcine DPEP1 ectodomain (residues 17-385) with Strep and Avi tags, biotinylated (porcine (Sus scrofa)) (UniProt P22412)
Test: BLI

Chain of UniProt P22412 (P22412 17-385): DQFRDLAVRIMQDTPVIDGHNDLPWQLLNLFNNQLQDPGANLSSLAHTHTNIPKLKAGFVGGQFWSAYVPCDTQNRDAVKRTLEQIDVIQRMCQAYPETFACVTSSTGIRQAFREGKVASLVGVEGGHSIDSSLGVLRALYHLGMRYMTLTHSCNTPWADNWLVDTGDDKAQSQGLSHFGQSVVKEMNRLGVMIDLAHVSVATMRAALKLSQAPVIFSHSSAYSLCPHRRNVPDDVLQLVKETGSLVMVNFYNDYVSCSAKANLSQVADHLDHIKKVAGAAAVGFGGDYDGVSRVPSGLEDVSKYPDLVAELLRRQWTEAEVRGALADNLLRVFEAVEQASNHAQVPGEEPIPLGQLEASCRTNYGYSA

## PHEV spike RBD (residues 327-605), from Expi293F cells, with His, Strep and Avi tags (domain or fragment)
  Kd: 1500 nM
